Experimental data from patent US20060263802A1 (CRUCELL HOLLAND B V, published 2006).

What was measured:
Assay in all cases: PEPSCAN ELISA, looped peptide, 10 ug/ml
[1] = target: looped/cyclic peptide … (rabies virus strain ERA)
[2] = target: looped/cyclic peptide … (rabies virus strain ERA); remark: listed apart in the source
[3] = target: looped/cyclic peptide … (rabies virus strain ERA); remark: listed apart in the source
[4] = target: looped/cyclic peptide … (rabies virus strain ERA); remark: listed apart in the source
[5] = target: looped/cyclic peptide … (rabies virus strain ERA); remark: listed apart in the source
[6] = target: looped/cyclic peptide … (rabies virus strain ERA); remark: listed apart in the source
[7] = target: looped/cyclic peptide … (rabies virus strain ERA); remark: listed apart in the source
[8] = target: looped/cyclic peptide … (rabies virus strain ERA); remark: listed apart in the source
[9] = target: looped/cyclic peptide … (rabies virus strain ERA); remark: listed apart in the source
[10] = target: looped/cyclic peptide … (rabies virus strain ERA); remark: listed apart in the source
[11] = target: looped/cyclic peptide … (rabies virus strain ERA); remark: listed apart in the source
[12] = target: looped/cyclic peptide … (rabies virus strain ERA); remark: listed apart in the source
[13] = target: looped/cyclic peptide … (rabies virus strain ERA); remark: listed apart in the source
[14] = target: looped/cyclic peptide … (rabies virus strain ERA); remark: listed apart in the source
[15] = target: looped/cyclic peptide … (rabies virus strain ERA); remark: listed apart in the source
[16] = target: looped/cyclic peptide … (rabies virus strain ERA); remark: listed apart in the source
[17] = target: looped/cyclic peptide … (rabies virus strain ERA); remark: listed apart in the source
[18] = target: looped/cyclic peptide … (rabies virus strain ERA); remark: listed apart in the source
[19] = target: looped/cyclic peptide … (rabies virus strain ERA); remark: listed apart in the source
[20] = target: looped/cyclic peptide … (rabies virus strain ERA); remark: listed apart in the source
[21] = target: looped/cyclic peptide … (rabies virus strain ERA); remark: listed apart in the source
[22] = target: looped/cyclic peptide … (rabies virus strain ERA); remark: listed apart in the source
[23] = target: looped/cyclic peptide … (rabies virus strain ERA); remark: listed apart in the source
[24] = target: looped/cyclic peptide … (rabies virus strain ERA); remark: listed apart in the source
[25] = target: looped/cyclic peptide … (rabies virus strain ERA); remark: listed apart in the source
[26] = target: looped/cyclic peptide … (rabies virus strain ERA); remark: listed apart in the source
[27] = target: looped/cyclic peptide … (rabies virus strain ERA); remark: listed apart in the source
[28] = target: looped/cyclic peptide … (rabies virus strain ERA); remark: listed apart in the source
[29] = target: looped/cyclic peptide … (rabies virus strain ERA); remark: listed apart in the source
[30] = target: looped/cyclic peptide … (rabies virus strain ERA); remark: listed apart in the source
[31] = target: looped/cyclic peptide … (rabies virus strain ERA); remark: listed apart in the source
[32] = target: looped/cyclic peptide … (rabies virus strain ERA); remark: listed apart in the source
[33] = target: looped/cyclic peptide … (rabies virus strain ERA); remark: listed apart in the source
[34] = target: looped/cyclic peptide … (rabies virus strain ERA); remark: listed apart in the source
[35] = target: looped/cyclic peptide … (rabies virus strain ERA); remark: listed apart in the source
[36] = target: looped/cyclic peptide … (rabies virus strain ERA); remark: listed apart in the source
[37] = target: looped/cyclic peptide … (rabies virus strain ERA); remark: listed apart in the source
[38] = target: looped/cyclic peptide … (rabies virus strain ERA); remark: listed apart in the source
[39] = target: looped/cyclic peptide … (rabies virus strain ERA); remark: listed apart in the source
[40] = target: looped/cyclic peptide … (rabies virus strain ERA); remark: listed apart in the source
[41] = target: looped/cyclic peptide … (rabies virus strain ERA); remark: listed apart in the source
[42] = target: looped/cyclic peptide … (rabies virus strain ERA); remark: listed apart in the source
[43] = target: looped/cyclic peptide … (rabies virus strain ERA); remark: listed apart in the source
[44] = target: looped/cyclic peptide … (rabies virus strain ERA); remark: listed apart in the source
[45] = target: looped/cyclic peptide … (rabies virus strain ERA); remark: listed apart in the source
[46] = target: looped/cyclic peptide … (rabies virus strain ERA); remark: listed apart in the source
[47] = target: looped/cyclic peptide … (rabies virus strain ERA); remark: listed apart in the source
[48] = target: looped/cyclic peptide … (rabies virus strain ERA); remark: listed apart in the source
[49] = target: looped/cyclic peptide … (rabies virus strain ERA); remark: listed apart in the source
[50] = target: looped/cyclic peptide … (rabies virus strain ERA); remark: listed apart in the source
[51] = target: looped/cyclic peptide … (rabies virus strain ERA); remark: listed apart in the source
[52] = target: looped/cyclic peptide … (rabies virus strain ERA); remark: listed apart in the source
[53] = target: looped/cyclic peptide … (rabies virus strain ERA); remark: listed apart in the source
[54] = target: looped/cyclic peptide … (rabies virus strain ERA); remark: listed apart in the source
[55] = target: looped/cyclic peptide … (rabies virus strain ERA); remark: listed apart in the source
[56] = target: looped/cyclic peptide … (rabies virus strain ERA); remark: listed apart in the source
[57] = target: looped/cyclic peptide … (rabies virus strain ERA); remark: listed apart in the source
[58] = target: looped/cyclic peptide … (rabies virus strain ERA); remark: listed apart in the source
[59] = target: looped/cyclic peptide … (rabies virus strain ERA); remark: listed apart in the source
[60] = target: looped/cyclic peptide … (rabies virus strain ERA); remark: listed apart in the source
[61] = target: looped/cyclic peptide … (rabies virus strain ERA); remark: listed apart in the source

B1: human monoclonal antibody CRJB (antibody, V domains shown)
VH: QITLKETGPTLVKPTQTLTLTCTFSGFSLSTSGVGVGWIRQPPGKALEWVTLIYWDDDKRYSPSLENRVTIRKDTSKNQVALTMTNMDPLDTGTYYCAHRQHISSFPWFDSWGQGTLVTVSS
VL: SYVLTQPPSVSVAPGKTARINCGGNNIEYRSVHWYQQKSGQAPVAVIYDNSDRPSGIPERFSGSKSGNTATLTISRVEAGDEADYYCQVWDISSDVVFGGGTKLTVLG
OD [1]: 80 OD | OD [2]: 93 OD | OD [3]: 106 OD | OD [4]: 118 OD | OD [5]: 100 OD | OD [6]: 85 OD | OD [7]: 83 OD | OD [8]: 72 OD | OD [9]: 103 OD | OD [10]: 129 OD | OD [11]: 116 OD | OD [12]: 92 OD | OD [13]: 83 OD | OD [14]: 93 OD | OD [15]: 112 OD | OD [16]: 107 OD | OD [17]: 104 OD | OD [18]: 100 OD | OD [19]: 91 OD | OD [20]: 99 OD | OD [21]: 100 OD | OD [22]: 102 OD | OD [23]: 104 OD | OD [24]: 104 OD | OD [25]: 88 OD | OD [26]: 101 OD | OD [27]: 134 OD | OD [28]: 94 OD | OD [29]: 94 OD | OD [30]: 93 OD | OD [31]: 110 OD | OD [32]: 96 OD | OD [33]: 76 OD | OD [34]: 93 OD | OD [35]: 91 OD | OD [36]: 85 OD | OD [37]: 92 OD | OD [38]: 80 OD | OD [39]: 93 OD | OD [40]: 97 OD | OD [41]: 87 OD | OD [42]: 92 OD | OD [43]: 110 OD | OD [44]: 86 OD | OD [45]: 90 OD | OD [46]: 98 OD | OD [47]: 42 OD | OD [48]: 93 OD | OD [49]: 97 OD | OD [50]: 88 OD | OD [51]: 107 OD | OD [52]: 99 OD | OD [53]: 92 OD | OD [54]: 104 OD | OD [55]: 99 OD | OD [56]: 101 OD | OD [57]: 97 OD | OD [58]: 89 OD | OD [59]: 108 OD | OD [60]: 93 OD | OD [61]: 85 OD
